Measured values as given in US20250290928A1, “METHOD, KIT AND DEVICE FOR DETECTING EXTRACELLULAR VESICLES” (priority 2022, published 2025).
No end group written: not given here. *: point of attachment. 5FAM = O=C1OC2(c3ccc(O)cc3Oc3cc(O)ccc32)c2ccc(C(=O)*)cc21; TQ2 = quencher; TQ3 = quencher

Tests used:
[1] = target: T1, MMP14 in the MDA-MB-231-derived extracellular vesicles (Homo sapiens, UniProt P50281); test: Digital detection of MDA-MB-231-derived extracellular vesicles through MMP14 activity in wells (microcompartments); type: biochemical; conditions: for Expected value λ (×1): at EV concentration x1
T1 construct: in terms of intact MMP14 with a molecular weight of 70 kDa
Description: The concentration of the solution is 6.7 μg/mL.
100 μL of the MMP14 detection solution was added to 100 μL of the sample to provide a reaction solution for wells. […] 100 μL of 200 μL of the prepared reaction solution for wells was used in the measurement of MMP14 activity with a 96-well plate.
Next, the wells were filled with the reaction solution by leaving the well array 200 to stand under reduced pressure to degas the space 205. After that, the space 205 was fed with hydrophobic solvents to be sealed. Fluorinated oils AsahiKlin AE-3000 (manufactured by AGC Inc.) and Fomblin Y-25 (manufactured by Solvay S.A.) were used as the hydrophobic solvents. A fluorinated oil Simoa (trademark) SR-X Sealing Oil: 102767 (manufactured by Quanterix Corporation) was further used as another hydrophobic solvent.
Well diameter: 4.25 μm Well depth: 3.25 μm Well capacity: 50 fL Number of wells in array: 239,000 Array range: 3 mm×4 mm
The concentration of the solution is 20 μg/mL. […] The concentration of the solution was set to x1, and 10-fold serial dilution was performed to prepare standard samples with five concentrations.
Next, the wells were filled with the reaction solution by leaving the well array 200 to stand under reduced pressure to degas the space 205. After that, the space 205 was fed with hydrophobic solvents to be sealed.
The concentration of the solution is 20 μg/mL. […] The concentration of the solution was set to x1, and 3-fold serial dilution was performed to prepare standard samples with three concentrations.
The concentration of the solution is 20 μg/mL. […] The concentration of the solution was set to x1, and 2-fold serial dilution was performed to prepare standard samples with four concentrations.
The concentration of the solution is 5 μg/mL.
50 μL of the MMP14 detection solution was added to 50 μL of the sample to provide a reaction solution for wells.
50 μL of each of the MMP14 detection solutions was added to 50 μL of the sample to provide a reaction solution for wells.
The concentration of the solution is 6.7 µg/mL.

[2] = target: T1, MMP14 in the MDA-MB-231-derived extracellular vesicles; test: Evaluation of MMP14 activity of MDA-MB-231-derived extracellular vesicles with 96-well plate; type: biochemical; conditions: for reaction rate per 1 μg/mL of extracellular vesicles: within 1 hour
Description: A relative fluorescence unit difference ΔRFU was calculated by subtracting the measured value of the sample for BG measurement from the measured value of each of the samples.
The concentration of the solution is 41.7 μg/mL. The concentration of the solution was set to x1, and 2-fold serial dilution was performed to prepare standard samples with six concentrations.
50 μL of the MMP14 detection solution was added to 50 μL of each of the samples, a reaction was performed at 37° C., and MMP14 activity was evaluated.
The concentration of the solution is 10 μg/mL.
50 μL of each of the MMP14 detection solutions was added to 50 μL of each of the samples, a reaction was performed at 37° C., and MMP14 activity was evaluated. […]
The concentration of the solution is 20 μg/mL. The concentration of the solution was set to x1, and 3-fold serial dilution was performed to prepare standard samples with three concentrations.
The concentration of the solution is 8 μg/mL.
50 μL of each of the MMP14 detection solutions was added to 50 μL of the sample, a reaction was performed at 37° C., and MMP14 activity was evaluated. […]
50 μL of the MMP14 detection solution was added to 50 μL of each of the samples, a reaction was performed at 30° C., and MMP14 activity was evaluated.
The MMP14 activity of the extracellular vesicles was evaluated with a 96-well plate (137101). A fluorescence intensity was measured with a fluorescence plate reader (Synergy) at 30° C. every 5 minutes for 2 hours. For measurement wavelengths, an excitation wavelength of 545±20 nm and a fluorescence wavelength of 588±20 nm were used. A relative fluorescence unit difference (ΔRFU) was calculated by subtracting the measured value of the sample for BG measurement from the measured value of each of the samples.
50 μL of each of the MMP14 detection solutions was added to 50 μL of each of the samples, a reaction was performed at 30° C., and MMP14 activity was evaluated.

[3] = Example 20, 37° C., 5 h, BG, EV 0 (free of extracellular vesicles, pseudopositive)
[4] = Example 20, 37° C., 5 h, ΔBG Absent, EV 0.0001 a.u.
[5] = Example 20, 37° C., 5 h, ΔBG Absent, EV 0.001 a.u.
[6] = Example 20, 37° C., 5 h, ΔBG Absent, EV 0.01 a.u.
[7] = Example 20, 37° C., 5 h, ΔBG Absent, EV 0.1 a.u.
[8] = Example 20, 37° C., 5 h, ΔBG Absent, EV 1 a.u. (x1=10 μg/mL)
[9] = Example 20, 37° C., 5 h, ΔBG Present (positives at EV 0 subtracted), EV 1 a.u.
[10] = Example 20, 37° C., 5 h, ΔBG Present, EV 0.001 a.u.
[11] = Example 20, 37° C., 5 h, ΔBG Present, EV 0.01 a.u.
[12] = Example 20, 37° C., 5 h, ΔBG Present, EV 0.1 a.u.
[13] = Example 22, buffer (2), 37° C., 1 h, EV 0 (free of extracellular vesicles)
[14] = Example 22, buffer (2), 37° C., 1 h, EV 0.111 a.u.
[15] = Example 22, buffer (2), 37° C., 1 h, EV 0.333 a.u.
[16] = Example 22, buffer (2), 37° C., 1 h, EV 1 a.u. (x1=10 μg/mL)
[17] = Example 22, buffer (2), 37° C., 2 h, EV 0 (free of extracellular vesicles)
[18] = Example 22, buffer (2), 37° C., 2 h, EV 0.111 a.u.
[19] = Example 22, buffer (2), 37° C., 2 h, EV 0.333 a.u.
[20] = Example 22, buffer (2), 37° C., 2 h, EV 1 a.u. (x1=10 μg/mL)
[21] = Example 9, EV 4 μg/mL, buffer (3), 37° C., Lineweaver-Burk plots
[22] = Example 42, EV 2.5 μg/mL, reporter 5 μM, 30° C., 4 hr, TRITC filter
[23] = Example 42, EV 2.5 μg/mL, reporter 5 μM, 30° C., 24 hr, TRITC filter

What does the source list for “[5-FAM]GRIGFLRTAK(TQ2)[OH] (5FAM-GRIGFLRTAK(TQ2)-OH) [Custom #1]”?
Expected value λ [1, 3]: 0.000553; Number of positives [1, 3]: 32; Positive ratio [1, 3]: 0.000553; Expected value λ [1, 4]: 0.000535; Number of positives [1, 4]: 31; Positive ratio [1, 4]: 0.000534; Expected value λ [1, 5]: 0.00285; Number of positives [1, 5]: 165; Positive ratio [1, 5]: 0.00285; Expected value λ [1, 6]: 0.0115; Number of positives [1, 6]: 661; Positive ratio [1, 6]: 0.0114; Expected value λ [1, 7]: 0.137; Number of positives [1, 7]: 7,404; Positive ratio [1, 7]: 0.128; Expected value λ [1, 8]: 1.16; Number of positives [1, 8]: 39,601; Positive ratio [1, 8]: 0.686; Expected value λ [1, 9]: 1.16; Number of positives [1, 9]: 39,569; Positive ratio [1, 9]: 0.685; Number of positives ([1]; Example 20, 37° C., 5 h, ΔBG Present, EV 0.0001 a.u.): −1; Expected value λ [1, 10]: 0.0023; Number of positives [1, 10]: 133; Positive ratio [1, 10]: 0.0023; Expected value λ [1, 11]: 0.0109; Number of positives [1, 11]: 629; Positive ratio [1, 11]: 0.0109; Expected value λ [1, 12]: 0.136; Number of positives [1, 12]: 7,372; Positive ratio [1, 12]: 0.128; λ at x1 in an approximation with BG correction ([1]; Example 20, 5 h): 1.07; λ at x1 in an approximation without BG correction ([1]; Example 20, 5 h): 1.03; Extracellular vesicle concentration ([1]; Example 20, with BG correction): 2.1e+10 mL⁻¹; extracellular vesicles in which MMP14 activity can be detected, contained in 1 μL of the extracellular vesicles (50 μg of protein in 50 μL of PBS) ([1]; Example 20, with BG correction): 2.1×10^9; Extracellular vesicle concentration ([1]; Example 20, without BG correction): 2.1×10^9 /μg of protein; Extracellular vesicle concentration ([1]; Example 20, without BG correction, reaction solution 10 μg of protein/mL, 50 fL): 2.1e+10 mL⁻¹; expected value λ at x1 (power approximation) ([1]; Example 22, after 1 hour): 0.661; expected value λ at x1 (power approximation) ([1]; Example 22, after 2 hours): 0.7145; Expected value λ [1, 13]: 0.000725; Number of positives [1, 13]: 21; Positive ratio [1, 13]: 0.000725; Expected value λ [1, 14]: 0.0784; Number of positives [1, 14]: 2,186; Positive ratio [1, 14]: 0.0754; Expected value λ [1, 15]: 0.237; Number of positives [1, 15]: 6,117; Positive ratio [1, 15]: 0.211; Expected value λ [1, 16]: 0.65; Number of positives [1, 16]: 13,855; Positive ratio [1, 16]: 0.478; Expected value λ [1, 17]: 0.000794; Number of positives [1, 17]: 23; Positive ratio [1, 17]: 0.000794; Expected value λ [1, 18]: 0.0822; Number of positives [1, 18]: 2,287; Positive ratio [1, 18]: 0.0789; Expected value λ [1, 19]: 0.238; Number of positives [1, 19]: 6,143; Positive ratio [1, 19]: 0.212; Expected value λ [1, 20]: 0.719; Number of positives [1, 20]: 14,860; Positive ratio [1, 20]: 0.513; extracellular vesicle concentration at which MMP14 activity was able to be detected in the microcompartments ([1]; Simoa Discs, buffer (4), reporter 5 μM, 37° C.): ≥ 10 ng/mL; increase in fluorescence intensity (temporal change) ([2]; Example 4, EV 5 μg/mL, reporter 5 μM, 37° C., Assay buffer (Component D)): more significant than that from SensoLyte 520 MMP-14; reaction rate per 1 μg/mL of extracellular vesicles ([2]; Example 5, Assay buffer (Component D) of SensoLyte 520 MMP-14 Assay Kit, reporter 5 μM, 37° C.): 101.5 ΔRFU/min; reaction rate per 1 μg/mL of extracellular vesicles ([2]; Example 8, buffer (2), reporter 5 μM, 37° C.): 198 ΔRFU/min; Km [2, 21]: 0.443 µM; Vmax [2, 21]: 1,278.77 ΔRFU/min; cleaved more easily than Custom #2 ([2]; Example 9 reaction conditions): about 2.5 times; fluorescence intensity at the same extracellular vesicle concentration ([2]; Example 10, buffer (3), reporter 5 μM, 37° C.): higher than the fluorescence intensity from Custom #2; extracellular vesicle concentration at which MMP14 activity was able to be detected with a 96-well plate ([2]; buffer (4), reporter 5 μM, 37° C.): ≥ 1 µg/mL

How did the “Expected value λ” value [1, 22] turn out when “TAMRA-GGPLGLAGGK(TQ3) ({TAMRA}-GGPLGLAGGK(TQ3)) [Custom #2T]” was run?
The value was 0.1255.

And the Number of positives [1, 22]?
The Number of positives was 3,313.

What about the Positive ratio [1, 22] of the same substance?
The Positive ratio was 0.118.

And the “Expected value λ” value [1, 23]?
The value was 0.1339.

And the Number of positives [1, 23]?
The Number of positives was 3,518.

What about the Positive ratio [1, 23] of the same substance?
Its Positive ratio is 0.1253.

And the “Expected value λ (×1)” value ([1]; single reporter, reaction 4 hr)?
The value was 0.5022.

What about the Extracellular vesicle concentration ([1]; single reporter, reaction 4 hr, at x1, from λ (×1) and 50 fL microcompartment) of the same substance?
The Extracellular vesicle concentration was 1.0044e+10 mL⁻¹.

What about the “Expected value λ (×1)” value ([1]; single reporter, reaction 24 hr) of the same substance?
The value was 0.5354.

What about the Extracellular vesicle concentration ([1]; single reporter, reaction 24 hr, at x1, from λ (×1) and 50 fL microcompartment) of the same substance?
The Extracellular vesicle concentration was 1.0709e+10 mL⁻¹.

And the “Fluorescence change after 2 hours of reaction at 30° C.” value (“Fluorescence change after 2 hours” for short) ([2]; Example 41, EV 5 μg/mL, reporter 5 μM, buffer (4), excitation 545±20 nm, fluorescence 588±20 nm)?
The value was 6,455 ΔRFU.

And the “Fluorescence change after 2 hours” value ([2]; MP, 1.25 μM #2T with 1.25 μM #1, EV 3.3 μg/mL)?
Its value is 1,015 ΔRFU.

What about the “Fluorescence change after 2 hours” value ([2]; MP, 1.25 μM #2T with 1.25 μM #2, EV 3.3 μg/mL) of the same substance?
The value was 1,734 ΔRFU.

And the “Fluorescence change after 2 hours” value ([2]; MP, 2.5 μM #2T with 2.5 μM #1, EV 3.3 μg/mL)?
The value was 1,118 ΔRFU.

And the “Fluorescence change after 2 hours” value ([2]; MP, 2.5 μM #2T with 2.5 μM #2, EV 3.3 μg/mL)?
The value was 2,196 ΔRFU.
